From paper PMC9059161 come the findings set out here.

In this assay the target is RHAU–casp9.

In turn, RHAU–casp9 (enzyme) returned a time to cleave half of casp3 (12 μM) by RHAU–casp9 (150 nM) without TERRA of 120 min.
